Source: article PMC2109139

Target: subunit of the Mo-Fe protein from Azotobacter vinelandii nitrogenase (Azotobacter vinelandii (strain OP)) (UniProt P07328)
Assay: electron microscopy

## subunit of the Mo-Fe protein from Azotobacter vinelandii nitrogenase (from UniProt P07328 1-492) (natural protein)
  stoichiometry N: 4
